{
  "source": "paper PMC12455474",
  "about": "“Single‐Molecule Protein Profiling Using Nanopores and Dimeric Aptamer‐Modified DNA Carriers”",
  "key": {"human alpha-thrombin": {"biological_target": "human alpha-thrombin (human, UniProt P00734;P00734 328-363;364-622)", "assay": "single-molecule nanopore (carrier dimerization, biphasic Hill fit); apparent sandwich Kd; 100 pM of each carrier; hook effect at high thrombin; Carriers (200 pM total) incubated with protein at 37 °C for 2 h; nanopore measurement in 100 mM KCl, 10 mM Tris-EDTA pH 8.0, -300 mV"}, "VEGF-165": {"biological_target": "VEGF-165 (human, UniProt P15692-4 27-191)", "sequence (P15692 other isoform, or with tags, fused parts or gaps)": "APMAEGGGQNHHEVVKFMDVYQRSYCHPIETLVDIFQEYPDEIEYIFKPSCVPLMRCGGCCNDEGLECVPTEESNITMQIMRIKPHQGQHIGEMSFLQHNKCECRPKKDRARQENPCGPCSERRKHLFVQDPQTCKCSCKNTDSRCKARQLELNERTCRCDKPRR", "assay": "single-molecule nanopore (carrier dimerization, biphasic Hill fit); apparent sandwich Kd; 200 pM carrier; Carriers (200 pM total) incubated with protein at 37 °C for 2 h; nanopore measurement in 100 mM KCl, 10 mM Tris-EDTA pH 8.0, -300 mV", "settings": "protein: recombinant; chain copies: 2; 2 identical carriers per protein dimer; first 12 nt pair with carrier overhang"}, "PDGF-BB": {"biological_target": "PDGF-BB (human, UniProt P01127 82-190)", "sequence (P01127 82-190)": "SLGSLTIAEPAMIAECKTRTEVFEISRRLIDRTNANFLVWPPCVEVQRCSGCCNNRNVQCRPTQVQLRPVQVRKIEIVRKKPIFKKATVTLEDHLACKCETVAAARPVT", "assay": "single-molecule nanopore (carrier dimerization, biphasic Hill fit); apparent sandwich Kd; 200 pM carrier; Carriers (200 pM total) incubated with protein at 37 °C for 2 h; nanopore measurement in 100 mM KCl, 10 mM Tris-EDTA pH 8.0, -300 mV", "settings": "protein: recombinant; chain copies: 2; 2 identical carriers per protein dimer; first 12 nt pair with carrier overhang"}},
  "data": [
    {"binder": "HD1 carrier + HD22 carrier (thrombin probes 1 and 2) (structured_DNA, 5' phosphate on probes, ligated to carrier) DNA 1: GGGCGGCGACCTTTTTTTGGTTGGTGTGGTTGG DNA 2: GGGCGGCGACCTTTTTTTAGTCCGTGGTAGGGCAGGTTGGGGTGACT", "values": [
      {"measurement": "Kd", "setting": "human alpha-thrombin", "value": "~9.1", "unit": "pM"}
    ]},
    {"binder": "GGGCGGCGACCTTTTTTTTGTGGGGGTGGACGGGCCGGGTAGA (structured_DNA, 5' phosphate, ligated to carrier)", "note": "[VEGF probe (V7t1) carrier]", "values": [
      {"measurement": "Kd", "setting": "VEGF-165", "value": "~0.3", "unit": "pM"}
    ]},
    {"binder": "PDGF probe carrier (structured_DNA, 5' phosphate, ligated to carrier) DNA: GGGCGGCGACCTTTTTTTCACAGGCTACGGCACGTAGAGCATCACCATGATCCTGTG", "values": [
      {"measurement": "Kd", "setting": "PDGF-BB", "value": "~1.8", "unit": "pM"}
    ]}
  ]
}
